The record followed here is publication PMC9770967, “Native holdup (nHU) to measure binding affinities from cell extracts” (Science Advances, 2022).

What all share (format): binding, human
One experiment deals with full-length SNX27. The experiment in a line: nHU-MS, recombinant full-length SNX27 bait, total Jurkat extracts. Conditions: apparent, Fig. 4D, n = 6. As for the experimental part: The empty His6-AviTag-MBP-TEV vector was used to produce biotinylated MBP for control experiments. Proteins were coexpressed with BirA biotin ligase (PET21a-BirA, Addgene, no. 20857) in Escherichia coli BL21(DE3) cells. At isopropyl-β-D-thiogalactopyranoside (IPTG) induction (1 mM IPTG at 18°C overnight), 50 μM biotin was added to the media. Harvested cells were lysed in a buffer containing 50 mM tris (pH 7.5), 150 to 300 mM NaCl, 50 μM biotin, 2 mM β-mercaptoethanol, cOmplete EDTA-free protease inhibitor cocktail (Roche, Basel, Switzerland), 1% Triton X-100, and trace amount of deoxyribonuclease, ribonuclease, and lysozyme. Lysates were frozen at −20°C before further purification steps. Lysates were sonicated and centrifuged for clarification. Expressed proteins were captured on in-house prepacked Ni-IDA (Protino Ni-IDA Resin, Macherey-Nagel, Duren, Germany) columns and were washed with at least 10 column volumes of cold wash buffer [50 mM tris (pH 7.5), 150 mM NaCl, and 2 mM β-mercaptoethanol] before elution with 250 mM imidazole. The Ni elution was collected directly on a preequilibrated amylose column (amylose high flow resin, New England Biolabs, Ipswich, MA). Amylose column was washed with 5 column volumes of cold wash buffer before fractionated elution in a buffer containing 25 mM Hepes (pH 7.5), 150 mM NaCl, 1 mM TCEP, 10% glycerol, 5 mM maltose, and cOmplete EDTA-free protease inhibitor cocktail. The concentration of proteins was determined by their ultraviolet absorption at 280 nm before aliquots were snap-frozen in liquid nitrogen and stored at −80°C.
(§1) For saturating streptavidin resin with biotinylated peptides or biotin, 50 μl of streptavidin resin was mixed with biotin or peptide at 40 to 60 μM concentration in 6 to 6.5 resin volume for 60 min. To saturate streptavidin resin with biotinylated proteins, 50 μl of streptavidin resin (Streptavidin Sepharose High Performance, Cytiva) was mixed with biotinylated MBP or MBP-PDZ at 40 to 50 μM concentration in 20× resin volume for 60 min. After saturation, resins were washed a single time [10 resin volume, holdup buffer: 50 mM tris (pH 7.5), 300 mM NaCl, and 1 mM TCEP, 0.22-μm filtered] and were depleted with biotin (10 resin volume, 10 min, holdup buffer supplemented with 100 μM biotin). Last, resins were washed two times (10 resin volume, holdup buffer).
(§2) For single-point nHU experiments carried out at ~10 μM bait concentration, 50 μl of saturated streptavidin resin was mixed with 200 μl of cell lysate (2 mg/ml). Titration experiments were carried out by mixing control and bait-saturated resin and keeping the total resin volume constant; e.g., ~5 μM bait concentration can be achieved by mixing 25 μl of bait-saturated streptavidin resin with 25 μl of control resin and 200 μl of cell lysate (2 mg/ml). Control and bait-saturated resins were prepared in larger amounts, and a serial dilution was prepared with these presaturated resins to achieve different resin ratios.
Unless specified elswhere, the nHU mixture was incubated at 4°C for 2 hours. After the incubation ended, the resin was separated from the supernatant by a brief centrifugation (15 s, 2000 g). Then, half of the supernatant was removed by pipetting without any delay to avoid any resin contamination; e.g., 100 μl of supernatant is collected if 200 μl of cell lysate was used as analyte. Alternatively, the supernatant can be centrifuged an additional time to clarify it further, removing any possible resin contamination. […]

The next experiment has as its target SCRIB_PDZ_1. The experiment in a line: nHU-MS, SCRIB_PDZ_1 bait, total Jurkat extracts (Exploris MS). Conditions: SCRIB_PDZ_1&Jurkat (Exploris).
Source text: (§3) To further establish the repeatability and robustness of the nHU-MS assay, we repeated the experiments using a different mass spectrometer and six different PDZ domain baits taken from SCRIB (PDZ_1 and PDZ_2), discs large MAGUK scaffold protein 1 (DLG1, PDZ_1, and PDZ_2), Tax1 binding protein 3 (TAX1BP3), and SNX27 (fig. S3B and table S1). […] Of the studied baits, the PDZ domain of SNX27 turned out to be the most promiscuous with 103 statistically significant interaction partners (while 180 SNX27 binding partners were identified in total on the basis of the three independent nHU-MS experiments).
as §1, §2
(§4) Unless specified elswhere, the nHU mixture was incubated at 4°C for 2 hours. After the incubation ended, the resin was separated from the supernatant by a brief centrifugation (15 s, 2000 g). Then, half of the supernatant was removed by pipetting without any delay to avoid any resin contamination; e.g., 100 μl of supernatant is collected if 200 μl of cell lysate was used as analyte. Alternatively, the supernatant can be centrifuged an additional time to clarify it further, removing any possible resin contamination. In principle, the separation of the supernatant should be as fast as possible since any delay can perturb the equilibrium. […] Alternatively, the resin can be separated from the supernatant using filter plates (e.g., various products of Millipore, Burlington, MA) or spin columns (e.g., Pierce spin cups—cellulose acetate filter from Thermo Fisher Scientific, Waltham, MA) to achieve faster separation.
The nHU samples were precipitated with trichloroacetic acid (TCA) 20% overnight at 4°C and centrifuged at 14,000 rpm for 10 min at 4°C. The protein pellets were washed twice with 1 ml of cold acetone and air-dried. The protein extracts were solubilized in 8 M urea, reduced with 5 mM TCEP for 30 min, and alkylated with 10 mM iodoacetamide for 30 min in the dark. Double digestion was performed at 37°C with 500 ng of endoproteinase Lys-C (Wako, Richmond, USA) for 4 hours, followed by fourfold dilution and an overnight digestion with 500 ng of trypsin (Promega, Charbonnieres les Bains, France). Peptide mixtures were then desalted on a C18 spin-column and dried on a speed vacuum.
(§5) Samples were analyzed using an Ultimate 3000 nano-RSLC coupled in line via a nano-electrospray ionization source, with an LTQ-Orbitrap ELITE mass spectrometer (Thermo Fisher Scientific, San Jose, CA) or with the Orbitrap Exploris 480 mass spectrometer (Thermo Fisher Scientific, Bremen, Germany) equipped with a high field asymmetric ion mobility spectrometry (FAIMS) module. […]

The target of another experiment is SCRIB_PDZ_2. The experiment in a line: nHU-MS, SCRIB_PDZ_2 bait, total Jurkat extracts (Exploris MS). The conditions noted are these: SCRIB_PDZ_2&Jurkat (Exploris).
Source text: as §3, §1, §2, §4
(§6) The nHU samples were precipitated with trichloroacetic acid (TCA) 20% overnight at 4°C and centrifuged at 14,000 rpm for 10 min at 4°C. The protein pellets were washed twice with 1 ml of cold acetone and air-dried. […]
as §5

The target of another experiment is SNX27_PDZ. The experiment in a line: nHU-MS, SNX27_PDZ bait, total Jurkat extracts, series 2 (Exploris MS). The conditions noted are these: SNX27_PDZ&Jurkat (Exploris).
Source text: as §3, §1, §2, §4, §6, §5

B1: WASH2: component of the WASH complex (protein)
chain: MTPVRMQHSLAGQTYAVPLIQPDLRREEAVQQMADALQYLQKVSGDIFSRISQQVEQSRSQVQAIGEKVSLAQAKIEKIKGSKKAIKVFSSAKYPAPERLQEYGSIFTGAQDPGLQRRPRHRIQSKHRPLDERALQEKLKDFPVCVSTKPEPEDDAEEGLGGLPSNISSVSSLLLFNTTENLYKKYVFLDPLAGAVTKTHVMLGAETEEKLFDAPLSISKREQLEQQVPENYFYVPDLGQVPEIDVPSYLPDLPGIANDLMYIADLGPGIAPSAPGTIPELPTFHTEVAEPLKVDLQDGVLTPPPPPPPPPPAPEVLASAPPLPPSTAAPVGQGARQDDSSSSASPSVQGAPREVVDPSGGRATLLESIRQAGGIGKAKLRSMKERKLEKKKQKEQEQVRATSQGGHLMSDLFNKLVMRRKGISGKGPGAGEGPGGAFARVSDSIPPLPPPQQPQAEEDEDDWES
For the molecule B1, the pKapp at full-length SNX27 is reported as 5.47.

B2: FUS (protein, UniProt P35637 1-526, looked up)
RNA-binding protein FUS: MASNDYTQQATQSYGAYPTQPGQGYSQQSSQPYGQQSYSGYSQSTDTSGYGQSSYSSYGQSQNTGYGTQSTPQGYGSTGGYGSSQSSQSSYGQQSSYPGYGQQPAPSSTSGSYGSSSQSSSYGQPQSGSYSQQPSYGGQQQSYGQQQSYNPPQGYGQQNQYNSSSGGGGGGGGGGNYGQDQSSMSSGGGSGGGYGNQDQSGGGGSGGYGQQDRGGRGRGGSGGGGGGGGGGYNRSSGGYEPRGRGGGRGGRGGMGGSDRGGFNKFGGPRDQGSRHDSEQDNSDNNTIFVQGLGENVTIESVADYFKQIGIIKTNKKTGQPMINLYTDRETGKLKGEATVSFDDPPSAKAAIDWFDGKEFSGNPIKVSFATRRADFNRGGGNGRGGRGRGGPMGRGGYGGGGSGGGGRGGFPSGGGGGGGQQRAGDWKCPNPTCENMNFSWRNECNQCKAPKPDGPGGGPGGSHMGGNYGDDRRGGRGGYDRGGYRGRGGDRGGFRGGRGGGDRGGFGPGKMDSRGEHRQDRRERPY
Consider B2, for which the “pKapp (nHU-MS)” value on SCRIB_PDZ_1 was determined as 4.571; at SCRIB_PDZ_2 it was 4.538.

B3: DNAJC16 (protein, UniProt Q9Y2G8 26-782, looked up)
DnaJ homolog subfamily C …: LDFDPYRVLGVSRTASQADIKKAYKKLAREWHPDKNKDPGAEDKFIQISKAYEILSNEEKRSNYDQYGDAGENQGYQKQQQQREYRFRHFHENFYFDESFFHFPFNSERRDSIDEKYLLHFSHYVNEVVPDSFKKPYLIKITSDWCFSCIHIEPVWKEVIQELEELGVGIGVVHAGYERRLAHHLGAHSTPSILGIINGKISFFHNAVVRENLRQFVESLLPGNLVEKVTNKNYVRFLSGWQQENKPHVLLFDQTPIVPLLYKLTAFAYKDYLSFGYVYVGLRGTEEMTRRYNINIYAPTLLVFKEHINRPADVIQARGMKKQIIDDFITRNKYLLAARLTSQKLFHELCPVKRSHRQRKYCVVLLTAETTKLSKPFEAFLSFALANTQDTVRFVHVYSNRQQEFADTLLPDSEAFQGKSAVSILERRNTAGRVVYKTLEDPWIGSESDKFILLGYLDQLRKDPALLSSEAVLPDLTDELAPVFLLRWFYSASDYISDCWDSIFHNNWREMMPLLSLIFSALFILFGTVIVQAFSDSNDERESSPPEKEEAQEKTGKTEPSFTKENSSKIPKKGFVEVTELTDVTYTSNLVRLRPGHMNVVLILSNSTKTSLLQKFALEVYTFTGSSCLHFSFLSLDKHREWLEYLLEFAQDAAPIPNQYDKHFMERDYTGYVLALNGHKKYFCLFKPQKTVEEEEAIGSCSDVDSSLYLGESRGKPSCGLGSRPIKGKLSKLSLWMERLLEGSLQRFYIPSWPELD
As to B3, the results for the “pKapp (nHU-MS)” value at SCRIB_PDZ_1 and on SNX27_PDZ were 4.6996 and 4.859, respectively.

B4: Strumpellin: component of the WASH complex (protein, UniProt Q12768 1-1159, looked up)
WASH complex subunit 5: MLDFLAENNLCGQAILRIVSCGNAIIAELLRLSEFIPAVFRLKDRADQQKYGDIIFDFSYFKGPELWESKLDAKPELQDLDEEFRENNIEIVTRFYLAFQSVHKYIVDLNRYLDDLNEGVYIQQTLETVLLNEDGKQLLCEALYLYGVMLLVIDQKIEGEVRERMLVSYYRYSAARSSADSNMDDICKLLRSTGYSSQPGAKRPSNYPESYFQRVPINESFISMVIGRLRSDDIYNQVSAYPLPEHRSTALANQAAMLYVILYFEPSILHTHQAKMREIVDKYFPDNWVISIYMGITVNLVDAWEPYKAAKTALNNTLDLSNVREQASRYATVSERVHAQVQQFLKEGYLREEMVLDNIPKLLNCLRDCNVAIRWLMLHTADSACDPNNKRLRQIKDQILTDSRYNPRILFQLLLDTAQFEFILKEMFKQMLSEKQTKWEHYKKEGSERMTELADVFSGVKPLTRVEKNENLQAWFREISKQILSLNYDDSTAAGRKTVQLIQALEEVQEFHQLESNLQVCQFLADTRKFLHQMIRTINIKEEVLITMQIVGDLSFAWQLIDSFTSIMQESIRVNPSMVTKLRATFLKLASALDLPLLRINQANSPDLLSVSQYYSGELVSYVRKVLQIIPESMFTSLLKIIKLQTHDIIEVPTRLDKDKLRDYAQLGPRYEVAKLTHAISIFTEGILMMKTTLVGIIKVDPKQLLEDGIRKELVKRVAFALHRGLIFNPRAKPSELMPKLKELGATMDGFHRSFEYIQDYVNIYGLKIWQEEVSRIINYNVEQECNNFLRTKIQDWQSMYQSTHIPIPKFTPVDESVTFIGRLCREILRITDPKMTCHIDQLNTWYDMKTHQEVTSSRLFSEIQTTLGTFGLNGLDRLLCFMIVKELQNFLSMFQKIILRDRTVQDTLKTLMNAVSPLKSIVANSNKIYFSAIAKTQKIWTAYLEAIMKVGQMQILRQQIANELNYSCRFDSKHLAAALENLNKALLADIEAHYQDPSLPYPKEDNTLLYEITAYLEAAGIHNPLNKIYITTKRLPYFPIVNFLFLIAQLPKLQYNKNLGMVCRKPTDPVDWPPLVLGLLTLLKQFHSRYTEQFLALIGQFICSTVEQCTSQKIPEIPADVVGALLFLEDYVRYTKLPRRVAEAHVPNFIFDEFRTVL
In the case of B4, the pKapp on full-length SNX27 is given as 4.94.
